In the nanobody polyreactivity screen of Harvey et al. (2022):

Test: yeast display, Sf9 membrane polyspecificity reagent, FACS + sequencing; frameworks hold sequencing errors
In short: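 Nanobodies came from a synthetic yeast display library in Saccharomyces cerevisiae BJ5465, induced with galactose for 36–48 hours and stained for 1 hour at 4 °C with 10% biotinylated, detergent-solubilized Sf9 membrane reagent. Cells were enriched on streptavidin microbeads and then FACS-sorted, with low and high (top ~1%) gates set on anti-HA fluorescence for expression and streptavidin fluorescence for reagent binding. Each polyreactivity label reflects the gate a clone came from. Genes were amplified by colony PCR, sequenced by MiSeq 2 × 250 and filtered by CDR length.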

Sequence | polyreactivity (PSR sort gate)
QVQLVESGGGLVQAGGSLRLSCAASGFIFSGYAMGWYRQAPGKEREVVATISRGGSTTYYADSVKGRFTISRDNAKNTVYLQKTSLKPEETGAYYCATVGYPYRPVYIRRPYRYNSWGQGTQVTVSS | high polyreactivity
QVQLVESGGGLVQAGCSLRLSCAASGSTLNSYFMGWYRQAPGKERELVATIRSGSSTNYADSVKGRFTISRDNAKNTVYLQMNILKPEDTAVYYCAADAYSLCYDSWGQGTQVTVSS | low polyreactivity
QVQLVESGGGLVQAGGSLRLSCAASGFIFAGNAMGWYRQAPGKEREWVAAISRRGVRTYYADSVKGRFTISRDNAKNTVYLQMNSLKPEDTAVYYCAADRPASLISSDYWGQGTQVTVSS | high polyreactivity
QVQLVESGGGLVQAGGSLRLSCAASGSTFDSYAMGWSRQAPGKERELVAAISYSGGSTYYADSVKGRFTISRDNAKNTVYLQMNRLKPEDTAVYYCAASSYNHKRYPSPYDYWGQGTQVTVSS | high polyreactivity
QVQLVESGGGLVQAGGSLRLSCAASGITFDRYAMGWYRQAPGKERELVAAITTRGTRTYADSVKGRFTISRDNAKNTVYLQMNSLKPEDTAVYYCAATSYRLTYAWPYYYWGQGTQVTVSS | high polyreactivity
QVQLVESRGGLVQAGGSLRLSCAASGSTFRTNTMGWSRQAPGKEREVVADISWSGGSTDYADSVKGRFTISRDNAKNTVYLQMNSLKPEDTAVYFCAKDGAFWTYYSWYDYWGQGTQVTVSS | low polyreactivity
QVQLVESGGGLVQAGGSLRLSCAASGITFRPYTMGWYRQAPGKERELVATINWSGGSTYYADSVKGRFTISRDNAKNTVYLQMNSLKPEDTAVYYCAVTWYVRRWYGYWGQGTQVTVSS | high polyreactivity
QVQLVESGGGLVQAGGSLRLSCAASGRIFYGYTMVWYRQAPGKERELVAAISWSGGSTSYADSVKGRFTISRDNAKNTVYLQMKSMKPEDTAVYYCAVRYPGYRQYWGYTYDYWGQGTQVTVSS | high polyreactivity
QVQIVDSGGGLVQAGGSLRLSCAASGSTFIPNDMGWYRQAPGKERELVAAITVSGDDTYYADSVKGRFTISRDNAKNTVYIQMNSLKPDDTAVYYCNVDDPFYSGVVVFDYWGQGTLVTVSS | low polyreactivity
QVQLEDSGGGLVQAGGSLRLSCAASGRTFPYKAMGWYRQAPGKERELVAAITSSGGSTYYADSVKGRFTISRDNAKNTVYLQMNSLKPEDTAVYYCAKGYYSPNYYYWGQGTQVTVSS | high polyreactivity
QVQLEESGGGLVQAGGSLRLSCAASGRIFDDNAMGWYRQAPGKERELVAAISSGDSTKYADSVKGRFTISRDNAKNTVYLQMNSLKPEDTAVYYCAAERNHGLVGSESVGRNDYWGQGTQVTVSS | low polyreactivity
QVQLVVSGGGLVQAGGSLRLSCAASGRTFYANAMGWYRQAPGKERELVAAISTGGDGTYYADSVKGRFTISRDNAKNTVYLQMNSLKPEDTADYYCAVRHRASGILYDYWGQGTQVTVSS | low polyreactivity
QVQLVESGGGLVQAGGSLRLSCAASGRTIASYTMGWYRQAPGKERELVAAISKSGGSTYYADSVKGRFTISRDNAKNTVYLQMNSLKPEDTAVYYCAAGVPFWFWFEMDYWGQGTQVTVSS | high polyreactivity
QVQLVESGGGLVQAGGSLRLSCAASGFTFVYYAMGWYRQAPGKERELVAAISRGGSTYYADSVKGRFTISRDNAKNTVYLQMNCLKPVDTAVYYCNAKKSGHYVSYPAYDYWGQGTQVTVSS | low polyreactivity
QVQLVESGGGLVQAGGSLRLSCAASGSIFRANAMGWYRQAPGKEREMVAAISYSGGSTYYADSVKGRFSISRDNAKNTVYLLMNSLKPEDTAVYYCAAEFLYASVYYSYWGQGTQVTVSS | high polyreactivity
QVQLVESGGGLVQAGGSLRLSCAASGFIFDWNTMGWYRQAPGQERELVAAITESSGSTYYADSVKGRFTISRDNAKNTVYLQMNSLKPEDTAVYYCAAESLISWRYDYWGQGTQVTVSS | low polyreactivity
QVQLVESGGGLVQAGGSLRLSCAASGRTFNFYPMGWYRPAPGKERELVAAITVRGGSTYYSDSVKGRFTISRYNAKNTVYLQMNSLKPEDTAVYYCAADPYPYYGAYDYWGQGTQVTVSS | high polyreactivity
QVQLVESGGGLVQAGGSLRLSCAASGRNFGNYAMGGYRQAPGKERELVAAISNGGSTNYADSVKGRVTISRDNAKNTVYFQMNSLKPEDTAVYYCNADQWAVIWGYLVLDFYYWGQGTQVPVSS | low polyreactivity
QVQLVESGGGLGQAGGSLRLSCAASGIIFYPNAMGWYRQAPGKERELVAAISCRSGSTYYADSVKGRITISRDNEKNTVYLQMNSLKPEDTSVYYCAADRRRSYIWRYDYWGQGTQVTVSS | low polyreactivity
QVQLVESGGGLVQAGGSLRLSCAASGIIFHYYAMGWYRQAPGKERELVATISWDGGNTYYADSVKGRFTISRDNAKNSVYLKMNSLKPEDTAVYYCNVYDKAPAYDYWGQGTQVTVSS | low polyreactivity
QVQLVESGGGLVQAGGSLRLSCAASGSTYGGYAMGWYRQAPGKETELVAAISRSGSSTYYADSVKGRFTISRDNAKNTVYLQMNSLKPEDTAVYYCAKRRPALRWIYYYWGQGTQVTVSS | high polyreactivity
QVQLVESGGGLVQAGGTLRLSCAASGSIFAGYAMGWYRQAPGKVRELVATITSGGSTNYADSVKGRFTISRDNAKNTVYLQMNSLKPEETAVYYCAADVEDSIATSYTCGEYVYWGQGTQVTVSS | low polyreactivity

Sequence | polyreactivity (PSR sort gate)
QVQLVESGGGLVQAGGSLRLSCAASGFTFGSYAMGWYIQAPGKERELVARISSDGSTNYADSVKGRFTISRDNAKNTVYLQMNSLKPEDTAVYYSARDRKRQADDIGEFDYWGQGTQVTVSS | low polyreactivity
QVQLVESGGGLVQAGGSLRLSCAASGFTFWKYTMGWYRQAPGKERELVAAITNSGTSTYYADSVKGRFTISRDNAKNTVYLQMNSLKPEDTAVYYCARDNEPDYYSYPYDYWGQGTQVTVSS | low polyreactivity
QVQLVESGGGLVQAGGSLRLSCAASGSIFPYNAMGWYRQAPGKERQLVARISWSGGSTYYADSVKGRFTISRDNAKNTVYLQMNSLKPEDTAVYYCAATIIFDAQYRFYYWGQGTQVTVSS | low polyreactivity
QVQLVESVGGLVQAGGSLRLSCAASGRIFGTNAMGWYRQAPGKERELVADITSGGSTNYADSVKGRFTISRDNAKNTVYLQMNSLKPEDTAVYYCAADVIGDLRWYRDEYWGQGTQVTVSS | low polyreactivity
QVQLVESGGGLVQAGGSLRLSSAASGRIFYFNARGWYRQAPGKARELVAGISSGGSTDYADSVKGRFTISRDNAKNTVDLQMNSLKPEDTAVYYCATRRSRYSYSGYWGQATQVTVSS | high polyreactivity
QVQLVESGGGLVQARGSLRLSSAASGIIFYEYAMGCYRQAPGKERELVAAISDTGGSTYYADSVKGRFTISRDNAKNTVYLQMNSLKPEDTAVYYCAAEYLAYYSGYDYWGQGTQVTVSS | high polyreactivity
QVQLVESGGGLVQAGGSLRLSCAASGSTITDYDMGWYRQAPGKERELVAAITSGGSTNYADSVKGRFTISRDNAKNTVYLQMNSLKPEDTAVYYCAAADADRKYDYWGQGTQVTVSS | low polyreactivity
QVQLVESGGGLVQAGGSLRLSCAASGSTFKIYAMGWYRQAPGKERELVAVITSGGRTNYADSGKGRFTISRDNAKNTVYLQMNSLKPEDTAVYYCARGRSIHSSNRLEYWGQGTQVTVSS | high polyreactivity
QVQLVESGGGLVQAGGSLRISSAASGRIFTPYVMGWYRQAPGKERELVADINLSGDSTSYADSVKGRFTITRDNAKNTVYLQMNSLKPEDTAVYYCNADSYIYVGNDQYDYWGQGTQVTVSS | low polyreactivity
QVQLVESGGGLVQAGGSLRLSCAASGIIFFYYAMGWYRQAPGKERELVASISSGGSTNYADSVKGRFTISRDNAKNTVYLQMNSLKPEDTALYYCAARRYYVRIQGYKLDYWGHGTQVTVSS | low polyreactivity
QVQLVESGGGLVQAGGSLRLSCAASGITFRYNAMGWYRQAPGKERELVAAITFSGGSTYYADSVKGRFTISRDNAKNTVDLQMNSLKPEDTAVYYCAKLGSTSSRGNYDYWGQGTQVTVSS | low polyreactivity
QVQLVESGGGLVQAGGSLRLSCAASGFIFDHYAMGWYRQAPGKERELVAAISGSGGSTYYADSVKGRFPISRDNAKNTVYLQMNSLKPEDTAVYYCAARPGSKYAQRGYWGQGTHVTVSS | high polyreactivity
QVQLVESGGGLVQAGGSLRLSCAASGFTFVDYMGWYRQAPGKERELVAAIDNSGGGTYYADSVKGRFTISRDNAKNTVYLQMNSLKPEDTAVYYRYAYTFYIYEDVLYVQGDYYWGQGTQVTVSS | low polyreactivity
QVQLVESGGGLVQAGGSLRLSCAASGSTWIYAMGWYRQAPGKERELVAAISGSGDRTYYADSVKGRFTISRDNAKNTVYLLMNSLQPEDTAVYFCATVYYKSGKYDYWGQGTQVTVSS | high polyreactivity
QVQLVESGGGLVQAGGSLRLSCAASGSTFSWYAMGWYRQAPGKERELVATITGSGGSTYYADSVKGRFTISRDNAKNTVYLQMNSLKPEDTAVYYCALDRGYTRWIASHSYQYDYWGQGTQETVSS | low polyreactivity
QVQLVESGGGLVQAGGSLRLSCAASGSTFDDYAMGWYRQAPGKERELVAAINSDCGGTYYADSVKGRFTISRDNAKNTVYLQMNSLKPEDTAVYYCNVEYEDYYAQRYGYDYWGQGTQVTVSS | low polyreactivity
QVQLVESGGGLVQAGGSLRLSCAASGSIFNRYAMGWYRQAPRKERELVAAITAGGSSTYYADSVKGRFTISRDNAKNTVYLQMNSLKPEDTAVYYCNAVWWHPKDYDYWGQGTQVTVSS | low polyreactivity
QVQLVESGGGLVQAGGSLLLSCAASGRIFDVYALGWYRQAPGTEREWVAAITWRVGSTYYADSVKGRFTISRDTAKNTVYLQMNSLKPEDTAVYYCAVDSFLVYSAVRPYDYWGQGTQVTVSS | low polyreactivity
QVQLVESGGGLVQAGGSLRLSCAASGLTFSRYARGWYRQAPGKERELVAAITGSGGNTYYADSVKGRFTISRDNAKNTVYLQMNSLKPEETAVYYCAARDRGDVTRRKGYYWGQGTQVTVSS | high polyreactivity
QVQLVESGGGLVQAGGSLRLSCAASGRTFGRYTMGWYIQAPGKERELGASISNTARTNYADSVKGRFTISRDNAKNTVYLQMNSLKPEDTAVYYCAAGFVRYRGTRDYWGQGTQVTVSS | low polyreactivity
QVQLVESGGGLVQAGGSLRLSCAASGFTFPHYMGWYRQAPGKERELVAAINVSGGSTSYADSVKGRFTISRDNAKNTVYLQMNSLKPEDTAVYYCAKDLRFRLFSYPSDYWGQATQVTVSS | low polyreactivity
